{"source": "patent US20250043302A1", "about": "“MUTATED HYDROXYPHENYLPYRUVATE DIOXYGENASE POLYPEPTIDE, AND CODING GENE AND USE THEREOF” (BEIJING DABEINONG BIOTECHNOLOGY CO., LTD., priority 2021, published 2025)", "type_in_all_cases": "in vivo", "key": {"[1]": {"tested_on": "Arabidopsis thaliana T1 plants", "assay": "Mesotrione tolerance of transgenic Arabidopsis thaliana T1 plants (spray, bleached leaf area grade, damage score)", "design": "Scores: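 damage score 0-100 computed as Σ(N×S)/(T×M)×100 over grades 0-3 with higher meaning more damage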", "settings": "Arabidopsis thaliana T1 plants; for Grade 0 (classification and statistics of the grade of pesticide damage; number of plants) / Grade 1 (classification and statistics of the grade of pesticide damage; number of plants) / Grade 2 (classification and statistics of the grade of pesticide damage; number of plants) / Grade 3 (classification and statistics of the grade of pesticide damage; number of plants): 16 plants", "method_in_brief": "(§1)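 Damage was assessed by bleaching grade (0 none; 1 <50%; 2 >50%; 3 100% of leaf area) one week after spraying. Sprays on 18-day-old T1 and wild-type plants used field-rate multiples: topramezone 25–200, isoxaflutole 35–280, mesotrione 52.5–420 g ai/ha.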"}, "[2]": {"tested_on": "Arabidopsis thaliana T1 plants", "assay": "Topramezone tolerance of transgenic Arabidopsis thaliana T1 plants (spray, bleached leaf area grade, damage score)", "settings": "7 DAT, Table 4; for Classification and statistics of the grade of pesticide damage: Grade 0 / Classification and statistics of the grade of pesticide damage: Grade 1 / Classification and statistics of the grade of pesticide damage: Grade 2 / Classification and statistics of the grade of pesticide damage: Grade 3: number of plants; for Scores: pesticide damage score 0-100", "method_in_brief": "as §1"}, "[3]": {"tested_on": "Arabidopsis thaliana T1 plants", "assay": "Isoxaflutole tolerance of transgenic Arabidopsis thaliana T1 plants (spray, bleached leaf area grade, damage score)", "design": "Scores (pesticide damage): scale not given here", "settings": "spray, Arabidopsis thaliana T1 plants; for Classification and statistics of the grade of pesticide damage: Grade 0 (number of plants) / Classification and statistics of the grade of pesticide damage: Grade 1 (number of plants) / Classification and statistics of the grade of pesticide damage: Grade 2 (number of plants) / Classification and statistics of the grade of pesticide damage: Grade 3 (number of plants): 16 plants", "method_in_brief": "as §1"}, "[4]": {"settings": "isoxaflutole 35 g ai/ha (0.5x field concentration)"}, "[5]": {"settings": "isoxaflutole 70 g ai/ha (1x field concentration)"}}, "data": [{"molecule": "AtHPPDm-F372A-F383W-02: nucleotide sequence encoding Arabidopsis thaliana HPPD with F372A+F383W; vector DBN11733 (nucleic acid, AtHPPDm-F372A-F383W-02 Nucleotide Sequence, vector DBN11733) DNA: ATGGGACATCAGAATGCTGCTGTATCAGAAAATCAAAATCATGATGATGGAGCCGCCTCCTCACCAGGGTTTAAGTTGGTTGGGTTCTCCAAGTTTGTACGGAAGAACCCAAAATCCGACAAGTTCAAGGTTAAACGCTTCCACCACATTGAATTCTGGTGCGGCGACGCCACCAATGTTGCTCGGCGTTTTTCATGGGGTTTAGGCATGAGATTCTCAGCAAAGAGTGACCTGAGCACCGGCAACATGGTTCATGCTAGCTATCTCTTAACATCTGGAGATTTGAGGTTTCTTTTCACGGCGCCGTACTCACCATCACTCTCCGCCGGCGAGATCAAACCCACCACGACTGCAAGCATACCTTCATTTGATCATGGTAGTTGCAGATCCTTCTTCTCGTCGCACGGCCTAGGGGTGCGCGCGGTCGCCATCGAAGTTGAAGATGCAGAATCAGCGTTTAGTATCAGCGTGGCAAATGGAGCTATTCCTTCCTCCCCTCCAATTGTCCTCAATGAGGCTGTAACTATTGCCGAGGTGAAGTTGTATGGAGATGTTGTGCTGAGATATGTTTCTTACAAGGCAGAGGACACTGAGAAATCTGAATTTTTGCCTGGTTTTGAAAGGGTCGAGGATGCTTCAAGTTTTCCTCTTGATTACGGCATACGACGGTTGGATCACGCGGTTGGAAATGTACCAGAACTTGGGCCGGCGCTCACTTATGTGGCTGGTTTCACTGGATTCCATCAATTTGCTGAGTTCACAGCTGATGATGTTGGGACTGCTGAAAGTGGGTTGAACTCTGCAGTCCTCGCCTCTAATGATGAAATGGTGCTCCTCCCGATCAACGAGCCTGTGCATGGCACCAAAAGGAAATCACAAATACAGACATATCTTGAGCACAATGAAGGTGCAGGGCTTCAACATCTTGCACTGATGTCTGAAGACATTTTCCGTACGCTGAGAGAGATGAGGAAGAGAAGTAGTATTGGTGGATTTGACTTCATGCCTTCTCCCCCACCAACTTACTACCAGAACTTGAAGAAGAGGGTTGGTGATGTGCTATCTGATGACCAGATCAAGGAGTGTGAAGAATTGGGCATTCTTGTTGATCGGGACGACCAAGGAACATTACTGCAGATAGCCACAAAACCACTTGGTGACCGCCCCACTATTTGGATTGAGATCATACAAAGAGTCGGCTGCATGATGAAGGATGAGGAAGGAAAAGCATATCAATCTGGTGGTTGTGGCGGCTTTGGGAAAGGAAACTTCTCTGAGCTGTTCAAATCCATCGAGGAGTATGAGAAGACCTTGGAGGCCAAGCAGCTCGTGGGTTGA", "values": [{"measurement": "Resistance evaluation", "setting": "[1]; mesotrione 52.5 g ai/ha", "value": "Moderately"}, {"measurement": "Scores", "setting": "[1]; mesotrione 52.5 g ai/ha", "value": 21}, {"measurement": "Grade 0 (classification and statistics of the grade of pesticide damage; number of plants)", "setting": "[1]; mesotrione 52.5 g ai/ha", "value": 8}, {"measurement": "Grade 1 (classification and statistics of the grade of pesticide damage; number of plants)", "setting": "[1]; mesotrione 52.5 g ai/ha", "value": 6}, {"measurement": "Grade 2 (classification and statistics of the grade of pesticide damage; number of plants)", "setting": "[1]; mesotrione 52.5 g ai/ha", "value": 2}, {"measurement": "Grade 3 (classification and statistics of the grade of pesticide damage; number of plants)", "setting": "[1]; mesotrione 52.5 g ai/ha", "value": 0}, {"measurement": "Resistance evaluation", "setting": "[1]; mesotrione 105 g ai/ha", "value": "Poorly resistant"}, {"measurement": "Scores", "setting": "[1]; mesotrione 105 g ai/ha", "value": 44}, {"measurement": "Grade 0 (classification and statistics of the grade of pesticide damage; number of plants)", "setting": "[1]; mesotrione 105 g ai/ha", "value": 2}, {"measurement": "Grade 1 (classification and statistics of the grade of pesticide damage; number of plants)", "setting": "[1]; mesotrione 105 g ai/ha", "value": 8}, {"measurement": "Grade 2 (classification and statistics of the grade of pesticide damage; number of plants)", "setting": "[1]; mesotrione 105 g ai/ha", "value": 5}, {"measurement": "Grade 3 (classification and statistics of the grade of pesticide damage; number of plants)", "setting": "[1]; mesotrione 105 g ai/ha", "value": 1}, {"measurement": "Classification and statistics of the grade of pesticide damage: Grade 0", "setting": "[2]; topramezone 25 g ai/ha (1×)", "value": 9}, {"measurement": "Classification and statistics of the grade of pesticide damage: Grade 1", "setting": "[2]; topramezone 25 g ai/ha (1×)", "value": 7}, {"measurement": "Classification and statistics of the grade of pesticide damage: Grade 2", "setting": "[2]; topramezone 25 g ai/ha (1×)", "value": 0}, {"measurement": "Classification and statistics of the grade of pesticide damage: Grade 3", "setting": "[2]; topramezone 25 g ai/ha (1×)", "value": 0}, {"measurement": "Classification and statistics of the grade of pesticide damage: Grade 0", "setting": "[2]; topramezone 100 g ai/ha (4×)", "value": 6}, {"measurement": "Classification and statistics of the grade of pesticide damage: Grade 1", "setting": "[2]; topramezone 100 g ai/ha (4×)", "value": 7}, {"measurement": "Classification and statistics of the grade of pesticide damage: Grade 2", "setting": "[2]; topramezone 100 g ai/ha (4×)", "value": 1}, {"measurement": "Classification and statistics of the grade of pesticide damage: Grade 3", "setting": "[2]; topramezone 100 g ai/ha (4×)", "value": 2}, {"measurement": "Scores", "setting": "[2]; topramezone 25 g ai/ha (1×)", "value": 15}, {"measurement": "Scores", "setting": "[2]; topramezone 100 g ai/ha (4×)", "value": 31}, {"measurement": "Resistance evaluation", "setting": "[2]; topramezone 25 g ai/ha (1×)", "value": "highly"}, {"measurement": "Resistance evaluation", "setting": "[2]; topramezone 100 g ai/ha (4×)", "value": "moderately"}, {"measurement": "Resistance evaluation", "setting": "[3]; [4]", "value": "Highly"}, {"measurement": "Scores (pesticide damage)", "setting": "[3]; [4]", "value": 15}, {"measurement": "Classification and statistics of the grade of pesticide damage: Grade 0 (number of plants)", "setting": "[3]; [4]", "value": 10}, {"measurement": "Classification and statistics of the grade of pesticide damage: Grade 1 (number of plants)", "setting": "[3]; [4]", "value": 5}, {"measurement": "Classification and statistics of the grade of pesticide damage: Grade 2 (number of plants)", "setting": "[3]; [4]", "value": 1}, {"measurement": "Classification and statistics of the grade of pesticide damage: Grade 3 (number of plants)", "setting": "[3]; [4]", "value": 0}, {"measurement": "Resistance evaluation", "setting": "[3]; [5]", "value": "Moderately"}, {"measurement": "Scores (pesticide damage)", "setting": "[3]; [5]", "value": 29}, {"measurement": "Classification and statistics of the grade of pesticide damage: Grade 0 (number of plants)", "setting": "[3]; [5]", "value": 5}, {"measurement": "Classification and statistics of the grade of pesticide damage: Grade 1 (number of plants)", "setting": "[3]; [5]", "value": 9}, {"measurement": "Classification and statistics of the grade of pesticide damage: Grade 2 (number of plants)", "setting": "[3]; [5]", "value": 1}, {"measurement": "Classification and statistics of the grade of pesticide damage: Grade 3 (number of plants)", "setting": "[3]; [5]", "value": 1}]}]}
